Experimental data as given in doi:10.1101/2025.07.04.663224.

How the values were obtained:
[1] = target: SmGdpP74 (cytosolic region of Streptococcus mutans GdpP, residues 74-654) (Streptococcus mutans strain NCTC10449); test: AUC
[2] = target: SmGdpP74 (cytosolic region of Streptococcus mutans GdpP, residues 74-654) (Streptococcus mutans strain NCTC10449); test: cryo-EM structure
[3] = target: SmGdpP74 (cytosolic region of Streptococcus mutans GdpP, residues 74-654) (Streptococcus mutans strain NCTC10449); test: SEC
[4] = target: SmGdpP74 (cytosolic region of Streptococcus mutans GdpP, residues 74-654) (Streptococcus mutans strain NCTC10449); test: cryo-EM structure; remark: listed apart in the source
[5] = target: SmGdpP74 (cytosolic region of Streptococcus mutans GdpP, residues 74-654) (Streptococcus mutans strain NCTC10449); test: cryo-EM structure; remark: listed apart in the source

Measured: stoichiometry N

SmGdpP74 (cytosolic region of Streptococcus mutans GdpP, residues 74-654) (domain or fragment)
4: all assays above
